US20130071390A1 (Merck Sharp & Dohme, published 2013)

How the values were obtained:
[1] = molecular target: T1, histidine-tagged extracellular domain of human Fc gamma receptor IIb/c (Pichia pastoris produced) (human, UniProt P31994 46-217); experiment: FcγR ELISA, receptor coated on plate
T1 construct: also called FcγRIIb/c; FcγRIIb
T1 sequence: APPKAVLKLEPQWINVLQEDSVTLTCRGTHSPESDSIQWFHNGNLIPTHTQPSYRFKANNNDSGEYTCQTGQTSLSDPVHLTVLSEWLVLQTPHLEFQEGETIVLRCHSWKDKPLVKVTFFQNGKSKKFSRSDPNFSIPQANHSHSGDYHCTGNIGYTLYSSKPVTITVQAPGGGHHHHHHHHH
Description: (§1) High protein binding 96-well plates (Corning Costar, Lowell, Mass.) were coated with 100 μl per well of Fcγ receptor solutions in PBS at the following concentrations: 1 μg/mL for FcγRI (R & D Systems) and FcγRIIa (Pichia pastoris produced), 2 μg/mL for FcγRIIb/c (P. pastoris produced), 0.4 μg/mL for FcγRIIIa-V158, and 0.8 μg/mL for FcγRIIIa-F158 (both P. pastoris produced).
(§2) For FcγRI, the antibody was coated in assay diluent (1% BSA, PBS, 0.05% Tween20) in monomeric form. For all other receptors, the antibody was coated after dimerization with alkaline phosphatase conjugated anti-human IgG F(ab′)₂ (Jackson ImmunoResearch, West Grove, Pa.) for one hour at room temperature. FcγRI bound antibody was also detected using the F(ab′)₂ and all plates were quantified by measuring excitation at 340 nm and emission at 465 nm after an 18 hour incubation with SuperPhosk (Virolabs, Chantilly, Va.).

[2] = molecular target: T2, FcγRI (Fc receptor gamma-chain I, CD64) (UniProt P12314 16-288); experiment: FcγR ELISA
T2 construct: also called FcγR1
T2 sequence (P12314 16-288 limits assumed): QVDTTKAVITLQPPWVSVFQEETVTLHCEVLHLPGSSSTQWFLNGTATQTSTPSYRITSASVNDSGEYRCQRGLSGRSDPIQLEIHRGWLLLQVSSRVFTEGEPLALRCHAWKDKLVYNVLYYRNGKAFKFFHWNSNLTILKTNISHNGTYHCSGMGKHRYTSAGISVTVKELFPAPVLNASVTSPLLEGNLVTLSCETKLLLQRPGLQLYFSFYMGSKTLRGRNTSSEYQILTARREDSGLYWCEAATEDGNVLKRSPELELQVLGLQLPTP
Description: as §1, §2

B1: anti-PCSK9 double mutein antibody F243A/V264A produced in GFI6.0 (antibody, human IgG1, kappa)
heavy: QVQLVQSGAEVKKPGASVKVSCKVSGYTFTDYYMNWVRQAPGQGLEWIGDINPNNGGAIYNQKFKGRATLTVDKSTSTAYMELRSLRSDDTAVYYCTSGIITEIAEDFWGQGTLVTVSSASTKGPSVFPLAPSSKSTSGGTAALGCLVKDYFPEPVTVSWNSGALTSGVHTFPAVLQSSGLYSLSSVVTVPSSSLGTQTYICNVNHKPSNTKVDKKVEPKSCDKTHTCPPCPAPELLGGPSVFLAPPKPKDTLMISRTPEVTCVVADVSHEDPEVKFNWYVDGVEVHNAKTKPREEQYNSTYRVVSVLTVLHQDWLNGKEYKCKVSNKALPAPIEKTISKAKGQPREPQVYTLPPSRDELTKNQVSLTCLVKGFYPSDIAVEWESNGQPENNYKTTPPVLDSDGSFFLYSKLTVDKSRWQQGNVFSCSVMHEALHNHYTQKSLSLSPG
light: DIQMTQSPSSLSASVGDRVTITCKASQNVGTNVVWYQQKPGKAPKALIHSASYRYSGVPSRFSGSGSGTDFTLTISSLQPEDFATYYCQQYKTYPYTFGQGTKVEIKRTVAAPSVFIFPPSDEQLKSGTASVVCLLNNFYPREAKVQWKVDNALQSGNSQESVTEQDSKDSTYSLSSTLTLSKADYEKHKVYACEVTHQGLSSPVTKSFNRGEC
binding result [1]: no binding
fold reduction in binding vs parent antibody (produced in GFI5.0) [2]: ~4 fold
